Experimental data reported in article PMC9555795, “Divergent kinase WNG1 is regulated by phosphorylation of an atypical activation sub-domain” (Biochemical Journal, 2022).

Molecular target: the molecule itself
Experiment: SAXS; protein diluted from a 305 uM stock in 20 mM HEPES pH 7.5, 100 mM NaCl; DAMMIN envelope, SASREF P2 tetramer model compared with the crystal hexamer

B1: BPK1 (residues 61-377) (domain or fragment)
chain: SVYRIPLADMTFWSWMSYLKELPDIDESRNPILKRLLSGSFLRRDGSTTVNVRVPARELVRLLSLTPEQQREGVSAKVRLINLLDPKYSVYEPYLYREILPKRSPLLLPSLGEYRGAFLTYIFHPLSKGLVGDMLETGRSHPDVQVLAANMVAALKSLHNLGLLHRSIELNSFSVLPDGTVVLGGLDTAAPIGTETRLWVGFFGQETAPEIDRNFLADLALTQGRHTVKSDVYSLGVAFRNLVQLLGNGNIGPEDRGAVRQDHLELLDKLSQKMIEEEPGNRPTIEEIMKDPLFEGLNFEDIEEGKARPFRYKQNRL
notes: BPK1, pseudokinase of the WNG family, Toxoplasma gondii, residues 61-377; Cloned in pET28a with the SUMO tag; Purified on Ni-NTA as for WNG1, so a His tag probably went off with the SUMO tag; The species is stated for the WNG family in general, not for BPK1 by name; also called WNG family pseudokinase; source: Rosetta 2 (DE3) cells, purified (Ni-NTA, ULP1 digestion, anion exchange, SEC)
- stoichiometry N: 4
